For 1 molecule, Kd results are on record in patent US20240327505A1 (published 2024).

This assay addresses SARS-CoV-2 spike receptor-binding domain (RBD) protein (SARS-CoV-2, UniProt P0DTC2 319-541). Nature of the assay: BLI.

B1: AB-009620 (antibody, V domains shown)
VH: QITLKESGPTLVKPTQTLTLTCTFSGFSLSTSGVGVGWIRQPPGKALEWLALIYWDDDKRYSPSLKSRLTITKDTSKNQVVLTMTNMDPVDTATYYCAHHEVATVFDYWGQGTLVTVSS
VL: QSALTQPASVSGSPGQSITISCTGTSSDVGAYNYVSWYQQHPGKAPKLMIYEVSNRPSGVSNRFSGSKSGNTASLTISGLQAEDEADYYCSSYTSSSTVFGGGTKLTVL
Broadly, the Kd is the free concentration of one partner at which half of the binding sites on the other are occupied at equilibrium, for simple one-to-one binding. Read a low Kd as tighter binding. B1: binding was characterised by a dissociation constant (Kd) of 5.99 nM.
